One block for each binder: values may come before it.
Columns and labels:
[1] = molecular target: T1, FcγRIIa type R extracellular domain with C-terminal His tag (human, UniProt P12318 34-217); assay: SPR, FcγR bound/antibody captured
T1 chain: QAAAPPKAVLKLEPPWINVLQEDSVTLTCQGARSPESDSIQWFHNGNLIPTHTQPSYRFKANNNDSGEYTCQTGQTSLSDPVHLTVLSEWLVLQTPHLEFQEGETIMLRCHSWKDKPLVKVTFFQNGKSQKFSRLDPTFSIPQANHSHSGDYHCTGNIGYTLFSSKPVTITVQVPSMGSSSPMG
Description: (§1) IL6R-L (SEQ ID NO: 22) was utilized as a common antibody L chain for all of the antibodies. These variants were expressed, purified, and expressed by the method of Reference Example 1. […] Interactions of each PD variant with FcγRIIa type R and FcγRIIb were comprehensively evaluated by the method of Reference Example 2.
(§2) With regard to the results of analyzing the interaction with the respective FcγRs, a figure was produced according to the following method.

[2] = molecular target: T2, FcγRIIb extracellular domain with C-terminal His tag (human, UniProt P31994 43-217); assay: SPR, FcγR bound/antibody captured
T2 construct: extracellular domain; also called FcgRIIb; FcγRIIb extracellular region; not shown: His tag at the C terminus
T2 sequence (looked up): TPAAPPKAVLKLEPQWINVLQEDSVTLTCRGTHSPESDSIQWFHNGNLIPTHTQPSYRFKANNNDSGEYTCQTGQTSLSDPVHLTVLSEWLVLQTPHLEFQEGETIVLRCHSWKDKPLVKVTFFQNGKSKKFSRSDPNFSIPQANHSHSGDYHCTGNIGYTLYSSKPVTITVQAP
Description: as §1, §2

[3] = molecular target: T3, FcγRIIIa type V extracellular domain with C-terminal His tag (human, UniProt P08637 17-208); assay: SPR (Biacore), antibody captured, FcγR analyte
T3 construct: extracellular domain; also called FcγRIIIaV; FcgRIIIaV; not shown: His tag at the C terminus
T3 sequence (P08637 17-208 F176V): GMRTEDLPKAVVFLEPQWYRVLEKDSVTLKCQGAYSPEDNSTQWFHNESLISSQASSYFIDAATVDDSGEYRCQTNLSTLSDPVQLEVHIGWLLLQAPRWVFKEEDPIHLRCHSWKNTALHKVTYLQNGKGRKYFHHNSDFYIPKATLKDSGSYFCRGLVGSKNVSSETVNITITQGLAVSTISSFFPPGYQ
Description: (§3) Furthermore, KD(IIaR)/KD(IIb) and KD(IIaH)/KD(IIb) in the table respectively show the value obtained by dividing the KD value of each variant for FcγRIIaR by the KD value of each variant for FcγRIIb, and the value obtained by dividing the KD value of each variant for FcγRIIaH by the KD value of each variant for FcγRIIb. KD(IIb) of the parent polypeptide/KD(IIb) of the altered polypeptide refers to a value obtained by dividing the KD value of the parent polypeptide for FcγRIIb by the KD value of each variant for FcγRIIb.
(§4) Kinetic analyses for calculating the KD values of each altered antibody for FcγR were performed according to the following method. First, antibodies of interest were captured onto the above-mentioned sensor chips, and an Fcγ receptor diluted with the running buffer was allowed to interact. The Biacore Evaluation Software was used to globally fit the measured results to the obtained sensorgram using the 1:1 Langmuir binding model, and the association rate constant ka (L/mol/s) and the dissociation rate constant kd (1/s) were calculated; and from those values the dissociation constants KD (mol/L) were calculated.

[4] = molecular target: T4, FcγRIIa type H extracellular domain with C-terminal His tag (human, UniProt P12318 34-217); assay: SPR (Biacore), antibody captured, FcγR analyte
T4 construct: extracellular domain; also called FcγRIIa H; FcγRIIaH; not shown: His tag at the C terminus
T4 sequence (looked up): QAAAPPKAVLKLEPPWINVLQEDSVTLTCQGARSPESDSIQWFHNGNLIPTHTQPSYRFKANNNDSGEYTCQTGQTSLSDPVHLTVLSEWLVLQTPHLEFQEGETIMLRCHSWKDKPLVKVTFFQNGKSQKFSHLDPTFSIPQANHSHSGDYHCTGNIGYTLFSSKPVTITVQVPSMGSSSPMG
Description: as §3, §4

[5] = molecular target: T1, FcγRIIa type R extracellular domain …; assay: SPR (Biacore), antibody captured, FcγR analyte
Description: as §3, §4

[6] = molecular target: T5, FcγRIIa type R extracellular domain, C-terminal His tag (human, UniProt P12318 34-217); assay: SPR (Biacore), antibody captured, FcγR as analyte
T5 construct: extracellular domain; also called FcgRIIaR; FcγRIIaR; not shown: His tag at the C terminus
T5 sequence (looked up): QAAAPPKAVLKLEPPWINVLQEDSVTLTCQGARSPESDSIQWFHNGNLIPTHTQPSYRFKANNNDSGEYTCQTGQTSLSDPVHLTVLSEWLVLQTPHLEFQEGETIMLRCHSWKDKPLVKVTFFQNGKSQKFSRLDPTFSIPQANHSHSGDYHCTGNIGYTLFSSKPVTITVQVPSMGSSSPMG
Description: as §3, with “respectively represent” for “respectively show”, “to the” for “to a”
as §4

[7] = molecular target: T6, FcγRIa extracellular domain, C-terminal His tag (human, UniProt P12314 16-292); assay: SPR (Biacore), antibody captured, FcγR as analyte
T6 construct: the whole entry is named; also called FcgRIa; CD64A; not shown: His tag at the C terminus
T6 sequence (P12314 16-292): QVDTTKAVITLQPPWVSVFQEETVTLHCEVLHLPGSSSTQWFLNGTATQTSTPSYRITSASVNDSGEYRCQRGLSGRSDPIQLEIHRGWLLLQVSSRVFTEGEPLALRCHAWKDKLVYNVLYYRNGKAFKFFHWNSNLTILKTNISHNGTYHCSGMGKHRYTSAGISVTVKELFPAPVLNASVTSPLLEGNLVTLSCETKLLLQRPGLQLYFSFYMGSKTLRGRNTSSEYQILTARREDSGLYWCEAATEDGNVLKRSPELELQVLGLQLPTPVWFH
Description: as §3, with “respectively represent” for “respectively show”, “to the” for “to a”
as §4

[8] = molecular target: T7, FcγRIIIa extracellular domain with C-terminal His tag (allotype not given) (human, UniProt P08637 17-208); assay: SPR (Biacore): antibody captured on the chip, FcγR as analyte; amount bound per amount captured, relative to GpH7-B3/GpL16-k0 without mutation = 100; FcγR concentration not shown
T7 construct: extracellular domain; also called CD16A; not shown: His tag at the C terminus
T7 sequence (P08637 17-208): as the sequence (P08637 17-208 F176V) above, with V160F counted along it
Description: (§5) B3 variants were expressed and purified using the method of Reference Example 1, and the binding to each FcγR (FcγRIa, FcγRIIa type H, FcγRIIa type R, FcγRIIb, and FcγRIIIa) was comprehensively evaluated using the method of Reference Example 2.
(§6) Figures were produced based on the results of interaction analysis with each FcγR by the method below. […] The value obtained by multiplying this value by 100 was used as an indicator of the relative FcγR-binding activity of each variant.

[9] = molecular target: T8, FcγRIa extracellular domain with C-terminal His tag (human, UniProt P12314 16-292); assay: SPR (Biacore): antibody captured on the chip, FcγR as analyte; amount bound per amount captured, relative to GpH7-B3/GpL16-k0 without mutation = 100
T8 construct: whole entry named; also called FcgRIa; CD64A; not shown: His tag at the C terminus
T8 sequence (P12314 16-292): as the sequence (P12314 16-292) above
Description: as §5, §6

[10] = molecular target: T2, FcγRIIb extracellular domain with …; assay: as above
Description: as §5, §6

[11] = molecular target: T4, FcγRIIa type H extracellular domain …; assay: as above
Description: as §5, §6

B1: IL6R-F652/IL6R-L (antibody, human IgG1, kappa)
heavy: QVQLQESGPGLVKPSETLSLTCAVSGHSISHDHAWSWVRQPPGEGLEWIGFISYSGITNYNPSLQGRVTISRDNSKNTLYLQMNSLRAEDTAVYYCARSLARTTAMDYWGEGTLVTVSSASTKGPSVFPLAPSSKSTSGGTAALGCLVKDYFPEPVTVSWNSGALTSGVHTFPAVLQSSGLYSLSSVVTVPSSSLGTQTYICNVNHKPSNTKVDKKVEPKSCDKTHTCPPCPAPELLGGDSVFLFPPKPKDTLYISRTPEVTCVVVDVSHEDPEVKFNWYVDGVEVHNAKTKPREEQYNSTYRVVSVLTVLHQDWLNGKEYKCKVSNKALPAPIEKTISKAKGQPREPQVYTLPPSRDELTKNQVSLTCLVKGFYPSDIAVEWESNGQPENNYKTTPPVLDSDGSFFLYSKLTVDKSRWQQGNVFSCSVMHEALHYHYTQKSLSLSP
light: not shown
notes: IL6R-F11 with P238D; copies: 2 + 2
relative FcγRIIaR-binding activity [1]: 100 % of IL6R-F652/IL6R-L
relative FcγRIIb-binding activity [2]: 100 % of IL6R-F652/IL6R-L

B3: IL6R-BP119/IL6R-L (antibody, human IgG1, kappa)
heavy: QVQLQESGPGLVKPSETLSLTCAVSGHSISHDHAWSWVRQPPGEGLEWIGFISYSGITNYNPSLQGRVTISRDNSKNTLYLQMNSLRAEDTAVYYCARSLARTTAMDYWGEGTLVTVSSASTKGPSVFPLAPSSKSTSGGTAALGCLVKDYFPEPVTVSWNSGALTSGVHTFPAVLQSSGLYSLSSVVTVPSSSLGTQTYICNVNHKPSNTKVDKKVEPKSCDKTHTCPPCPAPELLGGDSVFLFPPKPKDTLMISRTPEVTCVVVDVSHEDPEVKFNWYVDGVEVHNAKTKPREEQYNSTYRVVSVLTVLHQDWLNGKEYKCKVSNMALPAPIEKTISKAKGQPREPQVYTLPPSRDELTKNQVSLTCLVKGFYPSDIAVEWESNGQPENNYKTTPPVLDSDGSFFLYSKLTVDKSRWQQGNVFSCSVMHEALHNHYTQESLSLSP
light: not shown
notes: IgG1; P238D/K326M (EU numbering) introduced into IL6R-B3
Kd [6]: 9.9 µM
Kd [7]: 0.007 µM

B4: IL6R-2B172/IL6R-L (antibody, human IgG1, kappa)
heavy: QVQLQESGPGLVKPSETLSLTCAVSGHSISHDHAWSWVRQPPGEGLEWIGFISYSGITNYNPSLQGRVTISRDNSKNTLYLQMNSLRAEDTAVYYCARSLARTTAMDYWGEGTLVTVSSASTKGPSVFPLAPSSKSTSGGTAALGCLVKDYFPEPVTVSWNSGALTSGVHTFPAVLQSSGLYSLSSVVTVPSSSLGTQTYICNVNHKPSNTKVDKKVEPKSCDKTHTCPPCPAPELLGGDSVFLFPPKPKDTLMISRTPEVTCVVVDVSHEDPEVKFNWYVDGVEVHNAKTKPREEQYNSTYRVVSVLTVLHQDWLNGKEYKCKMSNKALPAPIEKTISKAKGQPREPQVYTLPPSRDELTKNQVSLTCLVKGFYPSDIAVEWESNGQPENNYKTTPPVLDSDGSFFLYSKLTVDKSRWQQGNVFSCSVMHEALHNHYTQESLSLSP
light: not shown
notes: IgG1; P238D/V323M (EU numbering) introduced into IL6R-B3
Kd [6]: 6.1 µM
Kd [7]: 0.003 µM

B5: IL6R-BP106/IL6R-L (antibody, human IgG1, kappa)
heavy: QVQLQESGPGLVKPSETLSLTCAVSGHSISHDHAWSWVRQPPGEGLEWIGFISYSGITNYNPSLQGRVTISRDNSKNTLYLQMNSLRAEDTAVYYCARSLARTTAMDYWGEGTLVTVSSASTKGPSVFPLAPSSKSTSGGTAALGCLVKDYFPEPVTVSWNSGALTSGVHTFPAVLQSSGLYSLSSVVTVPSSSLGTQTYICNVNHKPSNTKVDKKVEPKSCDKTHTCPPCPAPELLGGDSVFLFPPKPKDTLMISRTPEVTCVVVDVSDEDPEVKFNWYVDGVEVHNAKTKPREEQYNSTYRVVSVLTVLHQDWLNGKEYKCKVSNKALPAPIEKTISKAKGQPREPQVYTLPPSRDELTKNQVSLTCLVKGFYPSDIAVEWESNGQPENNYKTTPPVLDSDGSFFLYSKLTVDKSRWQQGNVFSCSVMHEALHNHYTQESLSLSP
light: not shown
notes: IgG1; P238D/H268D (EU numbering) introduced into IL6R-B3
Kd [6]: 11 µM
Kd [7]: 0.004 µM

B6: B3 variant of GpH7-B3/GpL16-k0 with mutation A (Pro at position 238 (EU numbering) substituted with Asp) (antibody, human IgG1, kappa)
heavy: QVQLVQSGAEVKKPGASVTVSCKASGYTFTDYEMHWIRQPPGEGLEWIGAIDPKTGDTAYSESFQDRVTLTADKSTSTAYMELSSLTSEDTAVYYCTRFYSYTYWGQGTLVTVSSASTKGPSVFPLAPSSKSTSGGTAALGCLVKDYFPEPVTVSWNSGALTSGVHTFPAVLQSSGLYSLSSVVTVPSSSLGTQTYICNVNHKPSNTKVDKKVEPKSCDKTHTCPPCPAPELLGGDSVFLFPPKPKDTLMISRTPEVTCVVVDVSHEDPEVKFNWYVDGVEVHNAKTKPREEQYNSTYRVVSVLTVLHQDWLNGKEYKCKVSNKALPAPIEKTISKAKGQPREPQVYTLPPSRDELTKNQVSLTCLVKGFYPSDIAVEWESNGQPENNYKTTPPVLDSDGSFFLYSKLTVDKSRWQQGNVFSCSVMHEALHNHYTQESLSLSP
light: DIVMTQSPLSLPVTPGEPASISCQASESLVHSNRNTYLHWYLQKPGQSPQLLIYKVSNRFSGVPDRFSGSGSGTDFTLKISRVEAEDVGVYYCSQNTHVPPTFGQGTKVEIERTVAAPSVFIFPPSDEQLKSGTASVVCLLNNFYPREAKVQWKVDNALQSGNSQESVTEQDSKDSTYSLSSTLTLSKADYEKHKVYACEVTHQGLSSPVTKSFNRGEC
notes: copies: 2 + 2
binding result [8]: no binding
binding result [9]: binds
binding result [10]: binds

Other lines, results leading:

Kd [3]: 37 µM
Kd [4]: 20 µM
Kd [5]: 22 µM
B2: IL6R-PD087/IL6R-L (antibody, human IgG1, kappa)
heavy: QVQLQESGPGLVKPSETLSLTCAVSGHSISHDHAWSWVRQPPGEGLEWIGFISYSGITNYNPSLQGRVTISRDNSKNTLYLQMNSLRAEDTAVYYCARSLARTTAMDYWGEGTLVTVSSASTKGPSVFPLAPSSKSTSGGTAALGCLVKDYFPEPVTVSWNSGALTSGVHTFPAVLQSSGLYSLSSVVTVPSSSLGTQTYICNVNHKPSNTKVDKKVEPKSCDKTHTCPPCPAPELLGMDSVFLFPPKPKDTLYISRTPEVTCVVVDVSHEDPEVKFNWYVDGVEVHNAKTKPREEQYNSTYRVVSVLTVLHQDWLNGKEYKCKVSNKALPAPIEKTISKAKGQPREPQVYTLPPSRDELTKNQVSLTCLVKGFYPSDIAVEWESNGQPENNYKTTPPVLDSDGSFFLYSKLTVDKSRWQQGNVFSCSVMHEALHYHYTQKSLSLSP
light: not shown
notes: IL6R-F11 with P238D/G237M; copies: 2 + 2

binding result [9]: binds
binding result [11]: binds
binding result [10]: binds
B7: B3 variant of GpH7-B3/GpL16-k0 with mutation B (Leu at position 328 (EU numbering) substituted with Glu) (antibody, human IgG1, kappa)
heavy: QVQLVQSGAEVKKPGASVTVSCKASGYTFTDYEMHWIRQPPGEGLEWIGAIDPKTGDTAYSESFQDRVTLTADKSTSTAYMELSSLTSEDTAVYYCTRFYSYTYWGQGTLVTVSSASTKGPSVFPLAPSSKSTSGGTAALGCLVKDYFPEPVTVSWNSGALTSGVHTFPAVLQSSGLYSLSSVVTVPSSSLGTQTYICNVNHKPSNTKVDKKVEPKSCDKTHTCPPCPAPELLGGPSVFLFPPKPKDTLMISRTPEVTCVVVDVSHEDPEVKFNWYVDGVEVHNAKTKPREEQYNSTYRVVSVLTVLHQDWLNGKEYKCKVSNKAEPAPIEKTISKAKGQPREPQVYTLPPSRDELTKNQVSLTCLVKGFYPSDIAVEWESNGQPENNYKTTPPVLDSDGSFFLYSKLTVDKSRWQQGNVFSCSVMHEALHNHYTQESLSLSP
light: DIVMTQSPLSLPVTPGEPASISCQASESLVHSNRNTYLHWYLQKPGQSPQLLIYKVSNRFSGVPDRFSGSGSGTDFTLKISRVEAEDVGVYYCSQNTHVPPTFGQGTKVEIERTVAAPSVFIFPPSDEQLKSGTASVVCLLNNFYPREAKVQWKVDNALQSGNSQESVTEQDSKDSTYSLSSTLTLSKADYEKHKVYACEVTHQGLSSPVTKSFNRGEC
notes: copies: 2 + 2

Source: patent US20140093496A1 (Chugai, published 2014)
